US20230174641A1 (H LUNDBECK A S, published 2023)
Ends that are not written are not given here.

T1: N-term biotinylated human ACTH 1-39 (human, N-terminal biotin)
T1 construct: also called huACTH 1-39
T1 peptide: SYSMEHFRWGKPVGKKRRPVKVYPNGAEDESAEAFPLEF

T2: ACTH 1-24 (human)
T2 peptide: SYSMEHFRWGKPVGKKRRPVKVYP

T3: human ACTH 1-39 (human)
T3 peptide: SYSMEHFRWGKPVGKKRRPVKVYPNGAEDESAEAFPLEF

T4: human ACTH 18-39 (human)
T4 construct: also called CLIP; CLIP (ACTH 18-39)
T4 peptide: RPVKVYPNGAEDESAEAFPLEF

T5: human ACTH 1-13 (human, ends and bridges not checked)
T5 construct: also called human alpha-MSH (ACTH 1-13); alpha-MSH
T5 peptide: SYSMEHFRWGKPV


Legend:
[1] = biological target: T1, N-term biotinylated human ACTH 1-39; assay: ELISA, biotin-ACTH 1-39 on neutravidin plate
Description: All incubations were done at room temperature. […] The plates were then blocked using a blocking solution (PBS, 0.5% fish skin gelatin, 0.05% Tween-20) for approximately one hour. The blocking solution was then removed and the plates were then incubated with a dilution series of the antibody being tested for approximately one hour. At the end of this incubation, the plate was washed three times with wash buffer and further incubated with a secondary antibody containing solution (Peroxidase conjugated AffmiPure™ F(ab′)₂ fragment goat anti-human IgG, Fc fragment specific (Jackson Immunoresearch) for approximately 45 minutes and washed three times. Next a substrate solution (TMB peroxidase substrate, BioFx®, SurModics, Eden Prairie, Minn.) was added and incubated for 3 to 5 minutes in the dark. The reaction was stopped by addition of 0.5 M HCl and the plate was read at 450 nm in a plate-reader.

ACTH 1-24 = biological target: T2, ACTH 1-24; assay: cell-based or functional assay
human ACTH 1-39 [2] = biological target: T3, human ACTH 1-39; assay: cell-based or functional assay
human ACTH 1-39 [3] = biological target: T3, human ACTH 1-39; assay: cell-based or functional assay
human ACTH 1-39 [4] = biological target: T3, human ACTH 1-39; assay: cell-based or functional assay
human ACTH 18-39 = biological target: T4, human ACTH 18-39; assay: SPR ProteOn, antibody immobilised
Description: (§1) Antibody was immobilized to the surface of general amine coupling (GLC or GLM) Chips (Bio-Rad). […] At the chosen concentrations of antigen (ranging from 454 ng/ml to 5.6 ng/ml) association times of 200 seconds and dissociation times of 30-200 minutes were used with the ProteOnTM Manager Software (v3.1.0.6, Bio-Rad) to group and fit data using a 1:1 Langmuir binding model. Surfaces were regenerated between analyte queries using 10 mM glycine at pH 2.0. Data repeated across a single density was averaged and a single KD and standard propagation of error calculated for each antibody.

human ACTH 1-13 [5] = biological target: T5, human ACTH 1-13; assay: SPR ProteOn, antibody immobilised
Description: as §1

human ACTH 1-39 [6] = biological target: T3, human ACTH 1-39; assay: cell-based or functional assay
[7] = biological target: T1, N-term biotinylated human ACTH 1-39; assay: competition HTRF, biotinylated human ACTH 1-39 in the presence of ACTH 1-13 and ACTH 18-39 at 10X (550 nM each, [p-2038])
Description: (§2) Twenty microliters of Eu3+cryptate labeled anti-hu Fc donor and 20 μl of d2-labeled streptavidin acceptor were added to each well and incubated for 1 hour at room temperature. Fluorescence was measured at […] with a delay of 300 μsec.

human ACTH 1-13 [8] = biological target: T5, human ACTH 1-13; assay: SPR ProteOn, antibody immobilised; SPR, antibody on the chip, alpha-MSH alone (Table 6)
Description: as §1

[9] = biological target: T1, N-term biotinylated human ACTH 1-39; assay: competition HTRF, biotinylated human ACTH 1-39 in the presence of ACTH 1-13 and ACTH 18-39 at 1X (55 nM each, [p-2038])
Description: as §2

human ACTH 1-39 [10] = biological target: T3, human ACTH 1-39; assay: SPR ProteOn, antibody immobilised
Description: as §1

| Binder | EC50 [1] [nM] | IC50 (nM), cAMP in MC2R cells (ACTH 1-24) [nM] | MC2R IC50 (human ACTH 1-39 [2]) [nM] | MC1R IC50 (human ACTH 1-39 [3]) [nM] | MC3R IC50 (human ACTH 1-39 [4]) [nM] | MC4R IC50 (human ACTH 1-39 [4]) [nM] | MC5R IC50 (human ACTH 1-39 [4]) [nM] | Kd (human ACTH 18-39) [nM] | koff (human ACTH 18-39) [s⁻¹] | kon (human ACTH 18-39) [M⁻¹ s⁻¹] | koff (human ACTH 1-13 [5]) [s⁻¹] | Y1 Cells IC50 (human ACTH 1-39 [6]) [nM] | EC50 (read off the curve) [7] [nM] | Kd (human ACTH 1-13 [8]) [nM] | koff (human ACTH 1-13 [8]) [s⁻¹] | kon (human ACTH 1-13 [8]) [M⁻¹ s⁻¹] | EC50 (read off the curve) [9] [nM] | Kd (human ACTH 1-39 [10]) [nM] | koff (human ACTH 1-39 [10]) [s⁻¹] | kon (human ACTH 1-39 [10]) [M⁻¹ s⁻¹] |
| --- | --- | --- | --- | --- | --- | --- | --- | --- | --- | --- | --- | --- | --- | --- | --- | --- | --- | --- | --- | --- |
| Ab2 (antibody, human IgG1, kappa, N297A, V domains shown, rabbit/human chimeric antibody, made in HEK-293) VH: QSVEESGGRLVTPGTPLTLTCTVSGFSLSKYDMIWVRQAPGKGLESIGIIYDDGDTYYASWAKGRFTISQTSTTVDLKIISPTTEDTATYFCVKGVSNIWGQGTLVTVSS VL: DVVMTQTPASVEAAVGGTVTIKCQASQSISNYLAWYQQKTGQPPKLLIYSASTLASGVPSRFKGSGSGTEFTLTISDLECADAATYYCQSYEGSSSSSYGVGFGGGTEVVVKR | 0.42 | 1.3 | 0.25 | 3.62 | 79 | 54.5 | 1100 | 31 | 0.026 | 840000 | > 0.1 |  |  |  |  |  |  |  |  |  |
| Ab3 (antibody, human IgG1, kappa, N297A, V domains shown, rabbit/human chimeric antibody, made in HEK-293) VH: QSLEESGGRLVTPGTPLTLTCTVSGSSLSNFDMIWVRQAPGKGLESIGIIYDFGSTYYASWAKGRFTISRTSSTTVDLKIISPTIEDTATYFCVKGVSNIWGQGTLVTVSS VL: DVVMTQTPASVEAAVGGTVTIKCQASEDISSNLAWYQQKLGQPPKLLIYSASTLASGVPSRFKGSGSGTEFTLAISDLECADAATYYCQSYDGSSSSSYGIGFGGGTEVVVKR | 0.24 | 0.8 | 0.29 | 4.12 | 58.7 | 54.2 | 1100 | 25 | 0.0085 | 340000 | > 0.1 | 7.72 |  |  |  |  |  |  |  |  |
| Ab5 (antibody, human IgG1, kappa, N297A, V domains shown, rabbit/human chimeric antibody, made in HEK-293) VH: QSVEESGGRLVTPGTPLTLTCTVSGFSLSSYAMSWVRQAPGEGLEWIGIISDSGSTYYASWAKGRFTISKTSTTVDLKITSPTTEDTATYFCAREPEYGYDDYGDWVSDLWGQGTLVTVSS VL: DIVMTQTPASVSEPVGGTVTIKCQASQSISSYLSWYQQKPGQPPKLLIYRASTLASGVPSRFKGSGSGTQFTLTISDLECADAATYYCQSYYYSSSITYRNAFGGGTEVVVKR | 1.5 |  | 0.11 | 1.96 | 58.1 | 43.4 | 1000 |  | > 0.1 |  |  | 3.49 | ~3 | 55 | 0.014 | 260000 | ~2 | 0.064 | 6.4e-05 | 1e+06 |
| Ab6 (antibody, human IgG1, kappa, N297A, V domains shown, rabbit/human chimeric antibody, made in HEK-293) VH: QSVEESGGRLVTPGTPLTLTCTVSGFSLTDYAMSWVRQAPGEGLEWIGIISDSGSTYYASWAKGRFTFSKTSTTVDLRITSPTTEDTATYFCAREPEYGYDEYGDWVSDLWGPGTLVTVSS VL: DIVMTQTPASVEAAVGGAVTIKCQATQSIGNNLAWYQQKPGQPPKLLIYRASTLASGVPSRFKGSGSGTEFTLTISDLECADAATYYCQSYYYSSSITYHNAFGGGTEVVVKR | 2 | 0.1 | 0.03 | 1.04 | 62.8 | 55.2 | 1000 |  | > 0.1 |  |  | 1.44 |  | 16 | 0.0052 | 330000 |  | 0.019 | 1.9e-05 | 1e+06 |
